T1: Human prostate stem cell antigen (PSCA) expressed on RM9-hPSCA murine prostate cancer cells (human, UniProt O43653 12-83)
T1 construct: RM9 cells transduced with human PSCA; also called RM9-hPSCA cells
T1 sequence: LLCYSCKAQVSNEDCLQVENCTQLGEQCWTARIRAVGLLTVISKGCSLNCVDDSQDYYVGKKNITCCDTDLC

T2: Recombinant human PSCA-mouse Fc fusion protein (human; mouse, UniProt O43653 12-83, limits assumed)
T2 construct: Those marks are not visible here; also called hPSCA-mFc; human PSCA-murine Fc fusion protein; not shown: mouse Fc
T2 sequence: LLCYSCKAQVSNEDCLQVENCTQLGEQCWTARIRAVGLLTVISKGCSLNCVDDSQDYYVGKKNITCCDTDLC


Legend:
[1] = biological target: T1, Human prostate stem cell antigen (PSCA) …; assay: saturation binding on PSCA-expressing cells
Description: (§1) The resulting saturation binding curves were fitted (one-site specific binding, GraphPad Prism) to determine Kd and Bₘₐₓ from four independent experiments. […] (FIG. 6)
Two novel anti-PSCA scFv-Fc variants (A2SM, A2aG) were designed, produced, and purified (FIG. 1). SDS-PAGE and SEC analysis confirmed purity and dimeric self-assembly. […] A2SM was successfully radiolabeled with ⁸⁹Zr (efficiency: >90%, purity >99%, n=2) resulting in a specific activity of ~0.17 MBq/μg (FIG. 2). […] Therefore, the novel A2SM could deliver a higher cytotoxic dose to the tumor while the liver remains the dose-limiting organ.

BSA = biological target: T3, BSA (UniProt P02769 25-607); assay: ELISA, BSA-coated control wells
T3 construct: Control coating in the ELISA; also called bovine serum albumin (control coating)
T3 sequence (P02769 25-607 limits assumed): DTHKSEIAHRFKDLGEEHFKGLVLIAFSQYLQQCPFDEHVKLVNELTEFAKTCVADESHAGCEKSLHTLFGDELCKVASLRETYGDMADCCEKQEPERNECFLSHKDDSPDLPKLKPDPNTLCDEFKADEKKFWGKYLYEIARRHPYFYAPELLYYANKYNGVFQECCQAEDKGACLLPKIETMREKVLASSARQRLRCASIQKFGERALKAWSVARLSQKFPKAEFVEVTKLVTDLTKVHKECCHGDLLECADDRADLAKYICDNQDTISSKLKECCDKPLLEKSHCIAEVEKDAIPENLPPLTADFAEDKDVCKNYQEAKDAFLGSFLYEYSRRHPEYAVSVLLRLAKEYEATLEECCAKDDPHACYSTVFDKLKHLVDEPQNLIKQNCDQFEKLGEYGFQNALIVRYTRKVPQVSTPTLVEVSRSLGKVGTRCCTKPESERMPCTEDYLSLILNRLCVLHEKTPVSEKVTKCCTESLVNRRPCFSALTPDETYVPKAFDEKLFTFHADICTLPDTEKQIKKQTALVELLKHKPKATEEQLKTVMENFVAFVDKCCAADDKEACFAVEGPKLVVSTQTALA
Experimental: (§2) Specificity and affinity of antigen binding was further evaluated by performing saturation binding on immobilized antigen in ELISA. Recombinant human PSCA-mouse Fc fusion protein (hPSCA-mFc, produced in house) was immobilized (1 μg/mL, 100 µL/well in PBS overnight at 4° C.). Serial dilutions of anti-PSCA scFvFc's ([…]) were incubated for 1 h at RT and after washing bound antibody fragments were detected using goat anti-human IgG-Fc-AP antibody (1:10,000) and pNPP substrate (alkaline phosphatase yellow, liquid substrate, Sigma-Aldrich P7998). The enzymatic reaction was stopped using 50 μL 2M NaOH and absorbance was red at 405 nm in an SpectraMax M2 microplane reader. Specific binding was fitted using the “one site-specific binding” equation to determine the Kd (ligand concentration that binds half the antigen sites at equilibrium) and Bₘₐₓ (maximum number of binding sites).
The purified proteins were tested for specific binding to recombinant antigen by ELISA on immobilized human PSCA-mouse Fc protein. Dose-dependent binding was detected for wells coated with hPSCA-mFc and no non-specific binding was detected in BSA coated control wells.

[2] = biological target: T2, Recombinant human PSCA-mouse Fc fusion …; assay: ELISA saturation binding on immobilized hPSCA-mFc, one site-specific binding fit (EC50=Kd), n=3
Experimental: as §2

[3] = biological target: T1, Human prostate stem cell antigen (PSCA) …; assay: flow cytometry saturation binding on RM9-hPSCA cells, one-site specific binding fit, four independent experiments
Description: as §1

[4] = biological target: T2, Recombinant human PSCA-mouse Fc fusion …; assay: ELISA saturation binding on hPSCA-mFc (value given for the 'previous' variant)

Row | Binder | Kd [1] | binding result (BSA) | Kd [2] | Kd [3] | Kd [4]
1 | A2scFv-Fc2 SM (anti-PSCA A2 scFv-Fc2 single mutant, H310A, with K322A) (Fc fusion, Homodimeric scFv-Fc of about 110 kDa, glycosylated, made in FreeStyle 293-F cells; I could not check whether that entry includes a leader peptide from the pSecTag2A vector; also called A2SM; A2scFv-Fc2-SM w/K322A) EVQLVESGGGLVQPGGSLRLSCAASGFNIKDYYIHWVRQAPGKGLEWVAWIDPEYGDSEFVPKFQGRATMSADTSKNTAYLQMNSLRAEDTAVYYCKTGGFWGRGTLVTVSSGGGGSGGGGSGGSAQDIQLTQSPSSLSASVGDRVTITCSASSSVRFIHWYQQKPGKAPKRLIYDTSKLASGVPSRFSGSGSGTDFTLTISSLQPEDFATYYCQQWGSSPFTFGQGTKVEIKVECPPCPAPPVAGPSVFLFPPKPKDTLMISRTPEVTCVVVDVSHEDPEVQFNWYVDGMEVHNAKTKPREEQFNSTFRVVSVLTVVAQDWLNGKEYKCAVSNKGLPAPIEKTISKTKGQPREPQVYTLPPSREEMTKNQVSLTCLVKGFYPSDIAVEWESNGQPENNYKTTPPMLDSDGSFFLYSKLTVDKSRWQQGNVFSCSVMHEALHNHYTQKSLSLSPGK | 3.3 nM | no binding | 0.59 nM | 3.74 nM | 
2 | A2scFv-Fc2 (anti-PSCA A2 scFv-Fc2 without FcRn-site mutations) (Fc fusion, also called A2Fc2) EVQLVESGGGLVQPGGSLRLSCAASGFNIKDYYIHWVRQAPGKGLEWVAWIDPEYGDSEFVPKFQGRATMSADTSKNTAYLQMNSLRAEDTAVYYCKTGGFWGRGTLVTVSSGGGGSGGGGSGGSAQDIQLTQSPSSLSASVGDRVTITCSASSSVRFIHWYQQKPGKAPKRLIYDTSKLASGVPSRFSGSGSGTDFTLTISSLQPEDFATYYCQQWGSSPFTFGQGTKVEIKVECPPCPAPPVAGPSVFLFPPKPKDTLMISRTPEVTCVVVDVSHEDPEVQFNWYVDGMEVHNAKTKPREEQFNSTFRVVSVLTVVHQDWLNGKEYKCKVSNKGLPAPIEKTISKTKGQPREPQVYTLPPSREEMTKNQVSLTCLVKGFYPSDIAVEWESNGQPENNYKTTPPMLDSDGSFFLYSKLTVDKSRWQQGNVFSCSVMHEALHNHYTQKSLSLSPGK |  |  |  |  | 0.5 nM
3 | A2scFv-Fc2 DMaG (anti-PSCA A2 scFv-Fc2 double mutant aglycosylated, H310A/H435Q, N297Q, with K322A) (Fc fusion, I could not check whether that entry includes a leader peptide; also called A2DMaG; A2scFv-Fc2-DMaG w/K322A) EVQLVESGGGLVQPGGSLRLSCAASGFNIKDYYIHWVRQAPGKGLEWVAWIDPEYGDSEFVPKFQGRATMSADTSKNTAYLQMNSLRAEDTAVYYCKTGGFWGRGTLVTVSSGGGGSGGGGSGGSAQDIQLTQSPSSLSASVGDRVTITCSASSSVRFIHWYQQKPGKAPKRLIYDTSKLASGVPSRFSGSGSGTDFTLTISSLQPEDFATYYCQQWGSSPFTFGQGTKVEIKVECPPCPAPPVAGPSVFLFPPKPKDTLMISRTPEVTCVVVDVSHEDPEVQFNWYVDGMEVHNAKTKPREEQFQSTFRVVSVLTVVAQDWLNGKEYKCAVSNKGLPAPIEKTISKTKGQPREPQVYTLPPSREEMTKNQVSLTCLVKGFYPSDIAVEWESNGQPENNYKTTPPMLDSDGSFFLYSKLTVDKSRWQQGNVFSCSVMHEALHNQYTQKSLSLSPGK | 3.1 nM | no binding | 0.8 nM | 3.28 nM | 
4 | A2scFv-Fc2 DM (anti-PSCA A2 scFv-Fc2 double mutant, H310A/H435Q) (Fc fusion) EVQLVESGGGLVQPGGSLRLSCAASGFNIKDYYIHWVRQAPGKGLEWVAWIDPEYGDSEFVPKFQGRATMSADTSKNTAYLQMNSLRAEDTAVYYCKTGGFWGRGTLVTVSSGGGGSGGGGSGGSAQDIQLTQSPSSLSASVGDRVTITCSASSSVRFIHWYQQKPGKAPKRLIYDTSKLASGVPSRFSGSGSGTDFTLTISSLQPEDFATYYCQQWGSSPFTFGQGTKVEIKVECPPCPAPPVAGPSVFLFPPKPKDTLMISRTPEVTCVVVDVSHEDPEVQFNWYVDGMEVHNAKTKPREEQFNSTFRVVSVLTVVAQDWLNGKEYKCKVSNKGLPAPIEKTISKTKGQPREPQVYTLPPSREEMTKNQVSLTCLVKGFYPSDIAVEWESNGQPENNYKTTPPMLDSDGSFFLYSKLTVDKSRWQQGNVFSCSVMHEALHNQYTQKSLSLSPGK |  |  |  |  | 0.8 nM

Source: patent US20260226190A1 (CITY OF HOPE, published 2026)
